In publication PMC7010297, “How the initiating ribosome copes with ppGpp to translate mRNAs” (PLoS Biology, 2020):
“And” between values parts separate entries of the source, which are not always exact repeats. Identical values can stand only once. Like-named read-outs stand apart in the source and are kept apart here.

Test system: 30S subunit (30S IC)
Test: 30S IC formation by MST, mRNA titration
Format: binding, Escherichia coli
Details: for MST Average / MST Replicates (a.u.): Fig 3B; for Kd: Fig 3C, from mRNA titration of 30S IC formation; for 30S IC formation MST signal, Average / 30S IC formation MST signal, replicates: Fig 6D
Description: Fig 1 Bacterial stringent response and experimental approach. (A) Schematics representing the onset of stringent response, (p)ppGpp accumulation, and gene expression regulation. Translation of stress-related mRNAs upon (p)ppGpp accumulating is the focus of the investigation (indicated as the red question mark). (B) Schematics of instrumentation for measuring 30S initiation complex (IC) by fluorescence Microscale Thermophoresis (MST) (provided by Nanotemper Technologies). […] Fluorophore excitation and measurement of the emitted fluorescence, together with IR-mediated perturbation of the equilibrium, are achieved through an objective and dichroic mirror. (C) Time courses of fluorescence showing the equilibrium relaxation upon thermal perturbation at varying ligand concentrations. Blue vertical lines indicate the fluorescence signal readout prior to the equilibrium perturbation (Fi), while vertical red lines indicate the fluorescence signal upon reaching the new equilibrium (Ff). Colored traces represent different concentrations of the titrating mRNA (0.1 to 4 μM). The ratio between the Ff over Fi times 1,000 is the normalized thermophoresis shift (MST). The dependency of MST shift on ligand concentration allows to estimate KD constants of the interaction using a hyperbolic or quadratic function and nonlinear regression fitting. MST measurements (closed circles) are indicated in the same colors as their respective time traces in (C). (D) Formation of 30S IC measured by MST. Time traces of thermophoresis (S1 Fig) were used to calculate MST values for all four combinations of mRNA start codons and labeled tRNAs for dependencies on mRNA concentration. […] Closed symbols indicate that Bpy-Met-tRNA^fMet was used, while open symbols correspond to Bpy-Phe-tRNA^Phe. Continuous lines indicate nonlinear regression fittings. Three to four measurements were performed; mean and error bars representing standard deviations are plotted (S1 Data).
To monitor the interaction of initiator tRNA and 30S ribosomal subunits, we used Microscale Thermophoresis (MST) with a fluorescently labelled initiator tRNA (Bpy-tRNAi) (Fig 1B). MST allows to measure fluorescence in a constrained space. Changes on the readout derive from molecular drifts resulting from small thermal equilibrium perturbations. Upon equilibrium perturbations, the patterns of Bpy-tRNAi migration away from the observation space are related to bound and unbound states (Fig 1B). […] On the contrary, a decrease in thermophoresis indicated the dissociation of Bpy-tRNAi. The relation between fluorescence measured at both equilibriums (Ff to Fi, after and prior to the perturbation, respectively) as a function of ligand concentration allowed to determine dissociation constants of the interaction (Fig 1C).
By observing the bound state of Bpy-tRNAi to the 30S subunit, MST could be measuring either IC, 30S pre-IC, or 30S IC, as they are identical in terms of ligand composition. […] To unambiguously assign which step is monitored by MST, we used different combinations of start codons and fluorescent tRNAs.
MST was calculated from the respective fluorescence time dependencies (S3 Fig). […] Symbols as in (B). […] Continuous lines indicate nonlinear regression fittings with quadratic (B and E) or same-site competition (G) functions. Three measurements were performed; mean and standard deviations are plotted (S1 Data).

[1] = Fig 3D, efficiency of 30S IC formation

B1: mTufA: TufA mRNA with full-length 5′ UTR, in vitro transcribed, codes for EF-Tu (nucleic acid)
chain: GGUUCUAUCGCCUUUAAAGAAGGCUUUAAGAAAGCGAAACCAGUUCUGCUUGAGCCGAUCAUGAAGGUUGAAGUAGAAACUCCGGAAGAGAACACCGGUGACGUUAUCGGUGACUUGAGCCGUCGUCGUGGUAUGCUCAAAGGUCAGGAAUCUGAAGUUACUGGCGUUAAGAUCCACGCUGAAGUACCGCUGUCUGAAAUGUUCGGAUACGCAACUCAGCUGCGUUCUCUGACCAAAGGUCGUGCAUCAUACACUAUGGAAUUCCUGAAGUAUGAUGAAGCGCCGAGUAACGUUGCUCAGGCCGUAAUUGAAGCCCGUGGUAAAUAAGCCUAAGGGUUAAUACCAAAGUCCCGUGCUCUCUCCUGAAGGGGAGAGCACUAUAGUAAGGAAUAUAGCCGUGUCUAAAGAAAAAUUUGAACG
MST Average (mRNA 0.004 μM): 969.58 a.u. | MST Replicates (a.u.) (mRNA 0.004 μM): 968.54 a.u. and 970.25 a.u. and 969.97 a.u. | MST Average (mRNA 0.008 μM): 969.59 a.u. | MST Replicates (a.u.) (mRNA 0.008 μM): 969.28 a.u. and 969.63 a.u. and 969.86 a.u. | MST Average (mRNA 0.016 μM): 972.78 a.u. | MST Replicates (a.u.) (mRNA 0.016 μM): 971.79 a.u. and 972.82 a.u. and 973.72 a.u. | MST Average (mRNA 0.03 μM): 974.49 a.u. | MST Replicates (a.u.) (mRNA 0.03 μM): 974.10 a.u. and 974.12 a.u. and 975.24 a.u. | MST Average (mRNA 0.06 μM): 982.70 a.u. | MST Replicates (a.u.) (mRNA 0.06 μM): 982.27 a.u. and 982.61 a.u. and 983.22 a.u. | MST Average (mRNA 0.13 μM): 997.76 a.u. | MST Replicates (a.u.) (mRNA 0.13 μM): 996.79 a.u. and 997.90 a.u. and 998.61 a.u. | MST Average (mRNA 0.25 μM): 1022.60 a.u. | MST Replicates (a.u.) (mRNA 0.25 μM): 1021.41 a.u. and 1022.36 a.u. and 1024.04 a.u. | MST Average (mRNA 0.50 μM): 1057.58 a.u. | MST Replicates (a.u.) (mRNA 0.50 μM): 1056.44 a.u. and 1057.96 a.u. and 1058.33 a.u. | MST Average (mRNA 1.00 μM): 1095.54 a.u. | MST Replicates (a.u.) (mRNA 1.00 μM): 1094.17 a.u. and 1095.62 a.u. and 1096.83 a.u. | MST Average (mRNA 2.00 μM): 1113.87 a.u. | MST Replicates (a.u.) (mRNA 2.00 μM): 1113.37 a.u. and 1113.82 a.u. and 1114.42 a.u. | Kd (read-out: Kd (μM) of the mRNA, Average): 0.19 µM | Kd (read-out: Kd (μM) of the mRNA, single replicate): 0.19 µM and 0.18 µM | MST Amplitude (a.u.), Average [1]: 165.04 a.u. | MST Amplitude (a.u.), single replicate [1]: 165.44 a.u. and 164.97 a.u. and 164.70 a.u. | 30S IC formation MST signal, Average (mRNA 0.001 µM): 934.16 | 30S IC formation MST signal, replicates (mRNA 0.001 µM): 933.97 and 934.33 and 934.18 | 30S IC formation MST signal, Average (mRNA 0.002 µM): 931.08 | 30S IC formation MST signal, replicates (mRNA 0.002 µM): 929.08 and 931.16 and 933.00 | 30S IC formation MST signal, Average (mRNA 0.004 µM): 929.10 | 30S IC formation MST signal, replicates (mRNA 0.004 µM): 927.65 and 929.57 and 930.10 | 30S IC formation MST signal, Average (mRNA 0.008 µM): 927.54 | 30S IC formation MST signal, replicates (mRNA 0.008 µM): 923.84 and 929.70 and 929.07 | 30S IC formation MST signal, Average (mRNA 0.016 µM): 926.63 | 30S IC formation MST signal, replicates (mRNA 0.016 µM): 924.56 and 926.45 and 928.88 | 30S IC formation MST signal, Average (mRNA 0.031 µM): 928.44 | 30S IC formation MST signal, replicates (mRNA 0.031 µM): 928.15 and 928.36 and 928.82 | 30S IC formation MST signal, Average (mRNA 0.062 µM): 934.74 | 30S IC formation MST signal, replicates (mRNA 0.062 µM): 934.59 and 934.05 and 935.59 | 30S IC formation MST signal, Average (mRNA 0.125 µM): 947.53 | 30S IC formation MST signal, replicates (mRNA 0.125 µM): 949.07 and 946.54 and 946.98 | 30S IC formation MST signal, Average (mRNA 0.25 µM): 962.80 | 30S IC formation MST signal, replicates (mRNA 0.25 µM): 964.74 and 961.64 and 962.03 | 30S IC formation MST signal, Average (mRNA 0.5 µM): 989.99 | 30S IC formation MST signal, replicates (mRNA 0.5 µM): 993.30 and 987.37 and 989.30 | 30S IC formation MST signal, Average (mRNA 1 µM): 1011.86 | 30S IC formation MST signal, replicates (mRNA 1 µM): 1011.95 and 1011.22 and 1012.39 | 30S IC formation MST signal, Average (mRNA 2 µM): 1036.12 | 30S IC formation MST signal, replicates (mRNA 2 µM): 1039.43 and 1034.52 and 1034.41
